T1: PARC6^685–819 as part of the PARC6^685–819–PDV1^263–272 fusion protein (Arabidopsis thaliana, UniProt Q8VY16 685-819)
T1 sequence (looked up): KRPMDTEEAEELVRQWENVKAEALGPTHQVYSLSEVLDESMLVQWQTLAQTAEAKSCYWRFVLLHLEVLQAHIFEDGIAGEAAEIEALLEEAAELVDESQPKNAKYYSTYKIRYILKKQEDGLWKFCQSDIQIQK


Key:
[1] = target: T1, PARC6^685–819 as part of the …; assay: crystal structure
SEC-MALS = target: the molecule itself; assay: SEC-MALS

binding result [1] | Binder | stoichiometry N (SEC-MALS)
binds | DHLDVMMARG (peptide, UniProt Q9FK13 263-272, looked up) [PDV1C (PDV1^263–272) as part of the PARC6^685–819–PDV1^263–272 fusion protein] | 
 | PARC6^640–819 (PARC6C), C-terminal domain of PARALOG OF ARC6 (domain or fragment, Arabidopsis thaliana, UniProt Q8VY16 640-819, looked up, intramolecular disulfide bond C657-C741 under oxidized conditions) NGIVGNIKVLIDMLKMHCGEHPDALYLKSSGQSATSLSHSASELHKRPMDTEEAEELVRQWENVKAEALGPTHQVYSLSEVLDESMLVQWQTLAQTAEAKSCYWRFVLLHLEVLQAHIFEDGIAGEAAEIEALLEEAAELVDESQPKNAKYYSTYKIRYILKKQEDGLWKFCQSDIQIQK | 2

Reference: article PMC9945983 (Proceedings of the National Academy of Sciences of the …, 2023)
